Holding throughout (assay): cell-based or functional assay
Assay [1] has as its target HIV-1 Env of isolate 6535.3 (HIV-1).
For assay [2], the target named is HIV-1 Env of isolate MGRM-G-016 (HIV-1).
Assay [3] concerns the target HIV-1 IAVI-C18 envelope glycoprotein (Env) on pseudovirus (HIV-1).
Assay [4] concerns the target HIV-1 Env of pseudovirus CMU02 (clade CRF01_AE) (HIV-1).
Assay [5] has as its target HIV-1 Env of pseudovirus MGRM-F1-012 (HIV-1).
Assay [6] has as its target HIV-1 Env of isolate PVO.4 (Acute), clade B, on pseudovirus (HIV-1).
For assay [7], the target named is HIV-1 Env of pseudovirus MGRM-F1-006 (HIV-1).
The target of assay [8] is HIV-1 envelope glycoprotein (Env) of isolate MGRM-A-003, clade A (HIV-1).
For assay [9], the target named is HIV-1 Env of isolate MGRM-G-028 (HIV-1).
Assay [10] deals with HIV-1 APV-6 envelope glycoprotein (Env) on pseudovirus (HIV-1).
Assay [11] addresses HIV-1 Env of isolate 93TH305, clade B, on pseudovirus (HIV-1).
For assay [12], the target named is HIV-1 Env of isolate CAAN.A2 (Acute), clade B, on pseudovirus (HIV-1).
The target of assay [13] is HIV-1 Env of isolate MGRM-D-012 (clade D pseudovirus) (HIV-1).
Assay [14] addresses HIV-1 Env of isolate SC422661.8 (subtype B pseudovirus) (HIV-1).
In assay [15] the target is HIV-1 Env of isolate MGRM-D-029 (pseudovirus) (HIV-1).
The target in assay [16] is HIV-1 Env of isolate MGRM-Chronic-B-012 (subtype B pseudovirus) (HIV-1).
The target in assay [17] is HIV-1 Env of isolate MGRM-Chronic-B-023 (subtype B pseudovirus) (HIV-1).
The target in assay [18] is HIV-1 Env of isolate 93IN905 (subtype C pseudovirus) (HIV-1).
Assay [19] concerns the target HIV-1 Env of isolate MGRM-Chronic-B-017 (subtype B pseudovirus) (HIV-1).
For assay [20], the target named is HIV-1 Env of isolate MGRM-C-028 (HIV-1).
Assay [21] concerns the target HIV-1 Env of isolate MGRM-D-019 (pseudovirus) (HIV-1).
In assay [22] the target is HIV-1 Env of isolate CMU02 (clade AE), on pseudovirus (HIV-1).
Assay [23] deals with HIV-1 Env of pseudovirus isolate MGRM-G-024 (HIV-1).
Assay [24] concerns the target HIV-1 Env of isolate MGRM-AE-006 (subtype AE) (HIV-1).
Assay [25] addresses HIV-1 Env of isolate MGRM-AE-004 (subtype AE) (HIV-1).
Assay [26] concerns the target HIV-1 Env of isolate 92UG005 (HIV-1).
The target in assay [27] is HIV-1 Env of isolate 92WR009 (HIV-1).
The target of assay [28] is HIV-1 Env of isolate MGRM-A-011 (subtype A) (HIV-1).
The target of assay [29] is HIV-1 Env of isolate MGRM-A-014 (subtype A) (HIV-1).
The target in assay [30] is HIV-1 Env of isolate MGRM-A-010 (subtype A) (HIV-1).
Assay [31] concerns the target HIV-1 Env of isolate 92WR026 (HIV-1).
Assay [32] concerns the target HIV-1 envelope glycoprotein (Env) of isolate MGRM-C-013 (HIV-1).
Assay [33] deals with HIV-1 envelope glycoprotein (Env) of isolate MGRM-C-020 (HIV-1).
Assay [34] concerns the target HIV-1 Env of isolate MGRM-C-005 (subtype C) (HIV-1).
Assay [35] concerns the target HIV-1 Env of isolate MGRM-AG-005 (subtype AG) (HIV-1).
The target in assay [36] is HIV-1 Env of isolate 92UG046 (HIV-1).
The target in assay [37] is HIV-1 Env of isolate MGRM-AG-002 (subtype AG) (HIV-1).
The target in assay [38] is HIV-1 Env of isolate THR0.18 (subtype B) (HIV-1).
The target in assay [39] is HIV-1 Env of isolate MGRM-A-012 (subtype A) (HIV-1).
Assay [40] deals with HIV-1 Env of isolate 98CN006 (HIV-1).
Assay [41] addresses HIV-1 Env of isolate SF162 (subtype B) (HIV-1) (UniProt P19550).
For assay [42], the target named is HIV-1 envelope glycoprotein (Env) of isolate MGRM-C-007 (HIV-1).
Assay [43] addresses aMLV envelope protein on pseudovirus (negative control).

The text below walks through data of US20250320281A1.

Usually IC50 stands for the concentration that gives 50% inhibition. Read a high IC50 as weaker potency in that assay.

Sequence of 4980_N08 (PGT-143) (antibody) (VH): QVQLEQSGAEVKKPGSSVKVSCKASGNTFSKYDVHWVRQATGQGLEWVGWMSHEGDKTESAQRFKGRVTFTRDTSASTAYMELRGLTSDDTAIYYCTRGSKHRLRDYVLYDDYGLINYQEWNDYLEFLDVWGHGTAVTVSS
Sequence of 4980_N08 (PGT-143) (antibody) (VL): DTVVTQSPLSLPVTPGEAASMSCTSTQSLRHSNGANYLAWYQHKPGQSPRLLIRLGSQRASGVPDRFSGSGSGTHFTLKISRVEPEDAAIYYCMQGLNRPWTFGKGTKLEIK
Sequence of 4993_K13 (PGT-141) (antibody) (VH): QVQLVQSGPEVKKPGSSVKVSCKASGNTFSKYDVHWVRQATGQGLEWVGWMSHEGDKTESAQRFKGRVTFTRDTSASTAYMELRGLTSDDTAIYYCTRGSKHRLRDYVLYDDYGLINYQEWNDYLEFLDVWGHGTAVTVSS
Sequence of 4993_K13 (PGT-141) (antibody) (VL): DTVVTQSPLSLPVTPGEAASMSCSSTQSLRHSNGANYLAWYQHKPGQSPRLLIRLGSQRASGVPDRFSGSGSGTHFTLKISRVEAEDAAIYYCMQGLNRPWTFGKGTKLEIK
Sequence of 4970_K22 (PGT-144) (antibody) (VH): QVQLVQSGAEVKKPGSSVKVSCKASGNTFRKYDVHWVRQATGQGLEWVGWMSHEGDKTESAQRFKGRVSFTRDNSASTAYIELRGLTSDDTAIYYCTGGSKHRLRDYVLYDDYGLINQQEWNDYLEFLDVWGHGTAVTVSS
Sequence of 4970_K22 (PGT-144) (antibody) (VL): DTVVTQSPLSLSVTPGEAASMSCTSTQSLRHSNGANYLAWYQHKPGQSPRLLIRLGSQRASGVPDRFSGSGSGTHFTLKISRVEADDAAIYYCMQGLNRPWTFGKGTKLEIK
Sequence of 4995_E20 (PGT-142) (antibody) (VH): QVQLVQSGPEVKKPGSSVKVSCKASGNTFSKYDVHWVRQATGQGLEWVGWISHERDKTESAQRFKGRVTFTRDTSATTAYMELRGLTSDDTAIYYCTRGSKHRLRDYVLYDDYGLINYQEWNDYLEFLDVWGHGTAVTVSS

As to 1496_C09 (PG9) (TCN-109) (antibody), the IC50 (µg/mL), pseudovirus neutralization stood at 1.05 µg/mL in [1], 1.36 µg/mL in assay [2] and 0.891 µg/mL in [9]. Further, the IC50, pseudovirus neutralization in assay [3] turned out to be 0.0535 mg/L; in assay [10], 0.0869 mg/L. Moreover, in assay [4], the IC50 is 7.69 mg/L. Further, the IC50 (µg/ml), pseudovirus neutralization is 0.01 µg/mL in assay [5]; 4.01 µg/mL in assay [6]; 1.45 µg/mL in [7]; 0.65 µg/mL in assay [8]; 2.08 µg/mL in assay [11]; 5.67 µg/mL in [12]. Besides, in [13], the IC50 (µg/ml), pseudovirus neutralization is 9.31 µg/mL.

4838_L06 (PGT-121) (antibody): the IC50 (µg/mL), pseudovirus neutralization in [14] was 0.098 µg/mL; in assay [16] it was 0.036 µg/mL; in assay [17] it was 0.005 µg/mL; in [18], 0.005 µg/mL; in assay [19], > 50 µg/mL. In addition, the IC50, pseudovirus neutralization was > 50 mg/L in assay [15], > 50 mg/L in assay [21] and > 10 mg/L in assay [22]. Besides, the neutralization IC50 in assay [20] is 0.472 mg/L.

Regarding 4858_P08 (PGT-123) (antibody), the IC50 (µg/mL), pseudovirus neutralization in assay [23] was 0.032 µg/mL; in assay [14] it was 0.039 µg/mL; in assay [16], 0.227 µg/mL; in assay [17], 0.055 µg/mL; in assay [18], 0.004 µg/mL; in assay [19], > 50 µg/mL. In addition, the IC50, pseudovirus neutralization is > 50 mg/L in [15], > 50 mg/L in assay [21] and > 10 mg/L in assay [22]. In assay [20], this substance had a neutralization IC50 of 0.402 mg/L.

Regarding 4877_D15 (PGT-122) (antibody), the IC50 (µg/mL), pseudovirus neutralization in [23] is 0.033 µg/mL; in [14], 0.103 µg/mL; in assay [16], 0.066 µg/mL; in [17], 0.01 µg/mL; in [18], 0.013 µg/mL; in assay [19] it was 5.66 µg/mL. Besides, the IC50, pseudovirus neutralization in assay [15] was > 50 mg/L; in assay [21], > 50 mg/L; in assay [22], > 10 mg/L. The same substance returned a neutralization IC50 in assay [20] of 2.22 mg/L.

In the case of 4970_K22 (PGT-144) (antibody), the IC50 (µg/mL), pseudovirus neutralization in assay [2] was > 50 µg/mL; in [24], > 50 µg/mL; in assay [9], > 50 µg/mL; in [25], 0.104 µg/mL.

With 4980_N08 (PGT-143) (antibody), the IC50 (µg/mL), pseudovirus neutralization in assay [2] was 7.6 µg/mL; in assay [24], > 50 µg/mL; in assay [9], 43 µg/mL; in assay [25], 0.002 µg/mL.

In the case of 4993_K13 (PGT-141) (antibody), the IC50 (µg/mL), pseudovirus neutralization in assay [2] is 4.69 µg/mL; in [26] it was > 50 µg/mL; in [24], > 50 µg/mL; in assay [9], 24.9 µg/mL; in assay [25], 0.001 µg/mL.

Regarding 4995_E20 (PGT-142) (antibody), the IC50 (µg/mL), pseudovirus neutralization is 8.17 µg/mL in assay [2], > 50 µg/mL in assay [24], 30.3 µg/mL in assay [9] and 0.001 µg/mL in assay [25].

5114_A19 (PGT-128) (antibody): the figures for the IC50 in [27] and in assay [31] were 0.812 mg/L and 0.01 mg/L, respectively. Further, the IC50 (µg/mL), pseudovirus neutralization is > 50 µg/mL in assay [28]; 0.007 µg/mL in assay [29]; 0.005 µg/mL in assay [30]; 0.018 µg/mL in assay [26]; > 50 µg/mL in [32]; 5.85 µg/mL in assay [33]. The IC50 (µg/mL), pseudovirus neutralization in assay [23] was 0.095 µg/mL; in [35], 0.037 µg/mL; in assay [24], 0.044 µg/mL; in [36] it was > 50 µg/mL; in assay [37], 4.99 µg/mL; in assay [39], 0.025 µg/mL. In addition, the IC50 (µg/mL), pseudovirus neutralization in assay [40] was 0.015 µg/mL; in assay [25], > 50 µg/mL; in assay [42], 0.111 µg/mL. The substance also yielded a neutralization IC50 in [1] of 0.011 mg/L. Also, the IC50 neutralization in assay [34] is 0.03 mg/L; in [38] it was > 50 mg/L; in assay [41] it was 0.007 mg/L.

As to 5123_A06 (PGT-125) (antibody), the IC50 (µg/mL), pseudovirus neutralization in [23] was > 50 µg/mL; in [14], 30.1 µg/mL; in [16], 0.036 µg/mL; in [17] it was > 50 µg/mL; in assay [18], 0.009 µg/mL; in [19], > 50 µg/mL. For the same substance, the IC50, pseudovirus neutralization in assay [15] is > 50 mg/L; in [21], 0.049 mg/L; in assay [22], > 10 mg/L. For the same substance, the neutralization IC50 in [20] is 14 mg/L.

In the case of 5141_B17 (PGT-126) (antibody), the IC50 (µg/mL), pseudovirus neutralization in [23] was > 50 µg/mL; in [14], 0.119 µg/mL; in [16], 0.027 µg/mL; in assay [17], > 50 µg/mL; in assay [18], 0.015 µg/mL; in [19], > 50 µg/mL. In addition, the IC50, pseudovirus neutralization in assay [15] is > 50 mg/L; in assay [43] it was > 10 mg/L; in assay [21] it was > 50 mg/L; in assay [22] it was > 10 mg/L. Also, the IC80 (pseudovirus neutralization) in assay [43] is > 10 mg/L. Besides, the IC90 (pseudovirus neutralization) in assay [43] was > 10 mg/L. In assay [43], the IC95 (pseudovirus neutralization) was > 10 mg/L. Also, in [20], the neutralization IC50 was found to be 0.196 mg/L.

As for 5145_B14 (PGT-127) (antibody), the IC50 (µg/mL), pseudovirus neutralization in [23] was > 50 µg/mL; in assay [14], 36.7 µg/mL; in assay [16], 0.075 µg/mL; in assay [17] it was > 50 µg/mL; in assay [18] it was 0.024 µg/mL; in [19], > 50 µg/mL. Further, the IC50, pseudovirus neutralization in [15] and in assay [21] was > 50 mg/L each time. In addition, the neutralization IC50 in assay [20] stood at 7.57 mg/L.

As for PGV04 (antibody), the IC50 (µg/mL), pseudovirus neutralization in assay [1] was found to be 0.757 µg/mL; in [2], 0.019 µg/mL; in assay [9], 0.352 µg/mL. The IC50 in assay [40] was 1.32 mg/L.

Take VRC01 (antibody): the IC50 (µg/mL), pseudovirus neutralization is 0.063 µg/mL in assay [2]; 4.65 µg/mL in [24]; 0.164 µg/mL in assay [9]; 0.187 µg/mL in assay [25]; 0.319 µg/mL in [20].
